Consider one substance from US12216128B2, “Methods for guiding therapy decisions in seizure disorders” (Mayo Foundation for Medical Education and Research, priority 2018, dated 2025).

One data set addresses T1, human IL-1R (Homo sapiens, UniProt P14778).
T1 construct: Human embryonic kidney (HEK) cells expressing murine and human IL-1 receptor proteins; host or cells: HEK-Blue IL1R (HEK293-derived reporter cells)
T1 sequence (P14778 18-569): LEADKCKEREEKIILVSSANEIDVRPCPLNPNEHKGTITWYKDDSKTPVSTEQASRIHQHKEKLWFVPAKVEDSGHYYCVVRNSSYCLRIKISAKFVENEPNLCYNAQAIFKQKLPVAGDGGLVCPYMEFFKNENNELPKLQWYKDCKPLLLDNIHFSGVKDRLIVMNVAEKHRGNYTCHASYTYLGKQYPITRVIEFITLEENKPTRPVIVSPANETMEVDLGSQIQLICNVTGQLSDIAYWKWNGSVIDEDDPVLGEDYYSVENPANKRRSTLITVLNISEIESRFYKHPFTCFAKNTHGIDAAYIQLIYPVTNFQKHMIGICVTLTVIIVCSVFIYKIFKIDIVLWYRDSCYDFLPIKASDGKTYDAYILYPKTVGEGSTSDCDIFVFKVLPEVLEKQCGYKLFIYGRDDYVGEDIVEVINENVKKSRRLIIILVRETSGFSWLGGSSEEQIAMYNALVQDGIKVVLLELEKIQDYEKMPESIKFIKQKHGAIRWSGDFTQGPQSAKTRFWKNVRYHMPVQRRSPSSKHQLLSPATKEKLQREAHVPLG
The data set is described as follows: HEK-Blue IL1R cell-based IL-1R signaling reporter assay (SEAP, Quanti-Blue, absorbance 655 nm). On the procedure: HEK-Blue IL1R cells: Human embryonic kidney (HEK) cells expressing murine and human IL-1 receptor proteins, as well as expressing secreted embryonic alkaline phosphatase under NF-kB/AP1 transcriptional control (HEK-Blue IL1R, InvivoGen), were maintained in DMEM with 10% FBS, 2 mM glutamine, 50 U/mL penicillin, 50 μg/ml streptomycin, 100 μg/ml Normocin, 200 μg/mL hygromicin B, 1 μg/mL puromycin, and 100 μg/ml Zeocin. Heat inactivated human serum tested negative for background alkaline phosphatase activity. In initial experiments, HEK-Blue IL1R cells were treated for 24 hours with 0-100 ng/mL recombinant human IL-1β (Peprotech) in the presence of 0-200 ng/mL anakinra. In subsequent experiments, cells were treated with 32 pg/mL IL-1β for all conditions. After 3 hours, saturating concentrations (10 μg/mL) of anakinra were added to the cells to block further IL-1R signaling, and endpoint supernatants were collected at 24 hours. Supernatants (20-40 μL) were mixed with prewarmed QUANTI-Blue reagent (160 μL, InvivoGen) and incubated at 37° C. in a Spectramax M3 multi-mode microplate reader (Molecular Devices). Absorbance at 655 nm was recorded every 5 minutes for 3 hours via kinetic read. The basal absorbance of untreated HEK-Blue IL-1R cell supernatant was subtracted from all samples to normalize for non-specific signal.
Given that both IL-1β and IL-1RA were elevated in FIRES patient serum, experiments were conducted to determine whether the elevation translated into a change in overall IL-1R signaling activity. To develop a sensitive functional measurement of IL-1R signaling activity, a cell based assay using HEK-Blue IL1R cells was developed and optimized. These cells express human IL-1R and respond to IL-1R signaling-induced NFκB activity by producing secreted embryonic alkaline phosphatase (SEAP), which dose-dependently results in increased absorbance of 655 nm wavelength light upon incubation with Quanti-Blue substrate (FIG. 2A).
To investigate this possibility, the antagonistic activity of FIRES patient CSF-derived IL-1RA was assessed using an in vitro HEK-Blue IL1R cell-based assay. […] Thus, HEK-Blue IL1R cells were treated with 32 pg/mL IL-1β in the presence of either 50% dialyzed FIRES patient CSF containing 65 pM patient IL-1RA or 50% dialyzed CSF derived from NPH patients that was supplemented with recombinant IL-1RA prior to dialysis to reach concentrations of IL-1RA equimolar to that seen in FIRES patient CSF. The percent inhibition of IL-1R-induced SEAP was then compared in cells treated with 50% CSF containing 65 pM FIRES patient IL-1RA vs. 50% CSF containing 65 pM anakinra.

The test system of another data set is children with FIRES. To be noted: Kenney-Jung et al. 2016; cited from earlier work.
Data set [1] in a line: IL-1RA ELISA in FIRES patient serum and CSF before and after initiation of anakinra treatment. The data set is classed as in vivo, human. To be noted: detects the exogenous IL-1RA. As to the method: IL-1RA enzyme-linked immunosorbent assay: The human IL-1RA/IL1F3 Quantikine ELISA kit (R&D Systems) was used according to the manufacturer's instructions. Serum and CSF samples were diluted (1:2-1:5000 in assay diluent) and duplicate samples were measured against a standard curve (31.3-2000 pg/mL in duplicate). After chromogen development, absorbance was measured on a Spectramax M3 multi-mode microplate reader (Molecular Devices). Absorbances falling outside the range of the standard curve were reanalyzed at different dilutions.
To determine whether there was a diminished level of endogenous IL-1RA in FIRES patient serum or CSF, IL-1RA levels were measured by enzyme-linked immunosorbent assay (ELISA) in FIRES patient serum and CSF before and after initiation of anakinra treatment, as well as in serum from healthy controls, CSF from normal pressure hydrocephalus patients, and serum and CSF from patients with other seizure disorders. […] IL-1RA was strongly elevated in FIRES CSF compared to normal pressure hydrocephalus controls and patients with ESES or focal epilepsy (FIG. 1C). CSF IL-1β levels, which were only rarely detectable in healthy controls, were also elevated in among FIRES patients (FIG. 1D). […] This finding also was consistent with reports of elevated IL-1RA following seizure activity (Lehtimaki et al., Neuroimmunomodulation 17(1):19-22, 2010).

As for “anakinra: recombinantly-produced human IL-1RA”, the “suppression of the measured increase in IL-1R activity elicited by serum plus IL-1β” value with human IL-1R (32 pg/mL IL-1β in the presence of 10% serum (HC, FE, FIRES, ESES), all conditions, FIG. 3E) is “at least partially suppressed”. In addition, in the data set with human IL-1R (32 pg/mL IL-1β, 50% dialyzed NPH CSF supplemented with 65 pM, FIG. 5B), the “IL-1R signaling in IL-1β treated HEK cells compared to unsupplemented NPH CSF” value was “significantly less IL-1R signaling”. Also, the “inhibition of IL-1R signaling in dialyzed CSF” value with human IL-1R (CSF dialyzed against DMEM/F12, 100 Dalton cut off membrane, FIG. 4D) was “restored anakinra-mediated inhibition”. Further, the “blockade of IL-1β-induced IL-1R signaling (SEAP)” value with human IL-1R (HEK-Blue IL1R cells, co-treatment with IL-1β, FIG. 2B) is listed as “competitively blocked”. Besides, the “inhibition of IL-1R signaling in undialyzed CSF” value with human IL-1R (media containing 50% control CSF or artificial CSF, compared to complete media, FIGS. 4A-4C) is on record as “did not show inhibition of IL-1R signaling”. Besides, in the data set with children with FIRES, the “clinical response of seizure disorder” value is “some children with FIRES respond”. Also, the “CSF level of IL-1RA following treatment” value in data set [1] (FIRES patient CSF) was “further increased”. The “serum level of IL-1RA following treatment” value in data set [1] (FIRES patient serum) is “further increased”.
